Read-outs that look alike come from different tables or passages of the source.
Key:
Mouse IL-2 [1] = molecular target: T1, Mouse IL-2 (mouse, UniProt P04351 21-169); assay: listed for comparison in the SPR species cross-reactivity table
T1 sequence (looked up): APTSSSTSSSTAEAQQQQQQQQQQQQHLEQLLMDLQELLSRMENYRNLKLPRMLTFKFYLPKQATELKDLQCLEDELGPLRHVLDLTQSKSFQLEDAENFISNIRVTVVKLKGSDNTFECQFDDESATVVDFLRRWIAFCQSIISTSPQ

Recombinant human IL-2 [2] = molecular target: T2, Recombinant human IL-2 (human, UniProt P60568 21-153); assay: cell-based or functional assay
Recombinant human IL-2 [3] = molecular target: T2, Recombinant human IL-2; assay: listed for comparison in the SPR table; method for this antibody not described
Rabbit IL-2 = molecular target: T3, Rabbit IL-2 (rabbit, UniProt O77620 21-153, limits assumed); assay: SPR (Biacore 4000), IgG captured on anti-human IgG Fc, IL-2 30 nM to 1 nM; affinity estimate
T3 sequence (looked up): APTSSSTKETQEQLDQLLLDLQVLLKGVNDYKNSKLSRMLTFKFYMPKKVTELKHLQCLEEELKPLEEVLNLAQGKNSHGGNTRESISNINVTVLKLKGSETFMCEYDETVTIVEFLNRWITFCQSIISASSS
Method: (§1) Antibody affinities were measured by SPR using the Biacore 4000 with a standard capture methodology. Briefly, anti-human IgG (Fc specific) from an anti-human antibody capture kit (Biacore) was immobilized onto spots 1, 2, 4, and 5 of all four flow cells of a CM-5 sensor chip by amine coupling according to the manufacturer's instructions. Running buffer was HBS-EP+ with 1% BSA. […] Data were analyzed using the Biacore 4000 Evaluation software.
(§2) These sequences were imported into vector NTI® (Lifetech) and aligned using the alignx tool.

Recombinant human IL-2 [4] = molecular target: T2, Recombinant human IL-2; assay: cell-based or functional assay; remark: listed apart in the source
Mouse IL-2 [5] = molecular target: T1, Mouse IL-2; assay: SPR (Biacore 4000), IgG captured on anti-human Fc, IL-2 injected
Rat IL-2 [6] = molecular target: T4, Rat IL-2 (rat, UniProt P17108 21-155); assay: as above
T4 sequence (looked up): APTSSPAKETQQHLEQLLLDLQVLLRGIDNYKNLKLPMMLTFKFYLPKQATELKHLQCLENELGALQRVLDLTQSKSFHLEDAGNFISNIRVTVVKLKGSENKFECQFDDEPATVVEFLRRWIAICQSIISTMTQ

Recombinant human IL-2 [7] = molecular target: T2, Recombinant human IL-2; assay: cell-based or functional assay; remark: listed apart in the source
Recombinant human IL-2 [8] = molecular target: T2, Recombinant human IL-2; assay: SPR (Biacore 4000), IgG captured on anti-human IgG Fc, rhIL-2 0.11-10 nM
Method: as §1

Recombinant human IL-2 [9] = molecular target: T2, Recombinant human IL-2; assay: cell-based or functional assay; remark: listed apart in the source
Recombinant human IL-2 [10] = molecular target: T2, Recombinant human IL-2; assay: cell-based or functional assay; remark: listed apart in the source
Recombinant human IL-2 [11] = molecular target: T2, Recombinant human IL-2; assay: cell-based or functional assay; remark: listed apart in the source
Mouse IL-2 [12] = molecular target: T1, Mouse IL-2; assay: SPR (Biacore 4000), IgG captured on anti-human IgG Fc, IL-2 30 nM to 1 nM; affinity estimate
Method: as §1, §2

Rat IL-2 [13] = molecular target: T4, Rat IL-2; assay: as above
Method: as §1, §2

[14] = molecular target: T5, human IL-2 Rβγ (IL-2 Rβ and γc) on cells (human, UniProt P14784 27-551; P31785 23-369); assay: flow cytometry, IgG binding (MFI); antibody titrated on CHOk1-IL2Rbeta-gamma (20-21) cells without IL2
T5 construct: whole, on cells; on CD25-depleted human primary NK cells in the pSTAT5 assay; also called CHO/Rβγ; CHO/IL-2 Rβγ (#20-21)
T5 sequence (looked up) 1: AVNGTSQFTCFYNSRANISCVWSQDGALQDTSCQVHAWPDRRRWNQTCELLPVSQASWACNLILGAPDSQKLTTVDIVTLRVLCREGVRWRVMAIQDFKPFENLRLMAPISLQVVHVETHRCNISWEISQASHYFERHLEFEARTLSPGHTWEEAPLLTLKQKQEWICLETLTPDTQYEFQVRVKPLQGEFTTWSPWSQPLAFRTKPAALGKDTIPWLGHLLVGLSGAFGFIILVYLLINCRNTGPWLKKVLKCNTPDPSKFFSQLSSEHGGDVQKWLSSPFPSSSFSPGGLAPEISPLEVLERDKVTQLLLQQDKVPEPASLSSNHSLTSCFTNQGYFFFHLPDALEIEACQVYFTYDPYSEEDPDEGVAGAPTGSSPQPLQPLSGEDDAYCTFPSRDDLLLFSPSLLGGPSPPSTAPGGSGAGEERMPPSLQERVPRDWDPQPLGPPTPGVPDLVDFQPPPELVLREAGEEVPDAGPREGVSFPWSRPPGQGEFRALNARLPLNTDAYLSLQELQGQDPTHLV
T5 sequence (looked up) 2: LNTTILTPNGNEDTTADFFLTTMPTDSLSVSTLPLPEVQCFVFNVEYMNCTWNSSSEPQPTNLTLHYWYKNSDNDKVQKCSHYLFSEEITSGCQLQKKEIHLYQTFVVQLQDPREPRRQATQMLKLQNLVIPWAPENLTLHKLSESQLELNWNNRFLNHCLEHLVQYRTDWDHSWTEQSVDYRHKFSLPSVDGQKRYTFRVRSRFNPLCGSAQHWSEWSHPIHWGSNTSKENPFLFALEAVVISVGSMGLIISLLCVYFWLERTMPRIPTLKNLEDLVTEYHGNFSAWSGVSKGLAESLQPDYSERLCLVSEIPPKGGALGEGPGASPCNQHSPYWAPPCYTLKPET
Method: (§3) After phage-derived antibody fragments were reformatted into full-length human IgGs, the purified antibodies were screened on CHO/Rα, CHO/Rβ, CHO/Rβγ, and parental CHO-K1 cells grown and stained as described above. […] This was allowed to incubate at 4° C. for 1 to 1.5 hours. Bound antibody was detected by the addition of anti-human heavy chain and light chain (Jackson Immuno Research #109-136-088) at 1:1000 and incubating at 4° C. for 30 minutes to 1 hour. Samples were analyzed using BD FACs Canto flow cytometer.

CHOk1-IL2Ralpha = molecular target: T6, CHOk1-IL2Ralpha; assay: flow cytometry, IgG binding (MFI); antibody titrated on CHOk1-IL2Ralpha cells without IL2
T6 construct: clone number not given; also called CHO/Rα; CHO/IL-2 Rα
T6 chain: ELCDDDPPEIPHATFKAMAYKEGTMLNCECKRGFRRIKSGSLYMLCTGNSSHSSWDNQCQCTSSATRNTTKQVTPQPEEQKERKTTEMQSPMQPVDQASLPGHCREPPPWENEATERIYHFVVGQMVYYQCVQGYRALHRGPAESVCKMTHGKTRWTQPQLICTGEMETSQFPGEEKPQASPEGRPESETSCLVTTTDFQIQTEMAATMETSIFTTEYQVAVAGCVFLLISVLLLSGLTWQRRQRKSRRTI
Method: as §3

Row | Molecule | Kd (Rabbit IL-2) | pSTAT5a,b Ratio of EC50s (Rαβγ/Rβγ), murine cells (Recombinant human IL-2 [4]) | pSTAT5a,b fold EC50 shift, CTLL-2 (muRαβγ) (Recombinant human IL-2 [4]) | pSTAT5a,b fold EC50 shift, Mouse Primary NK cells (muβγ) (Recombinant human IL-2 [4]) | Fold EC50 shift of IL-2-induced proliferation, CTLL-2 (muRαβγ) (Recombinant human IL-2 [7]) | Kd (Recombinant human IL-2 [8]) | koff (Recombinant human IL-2 [8]) | kon (Recombinant human IL-2 [8]) | pSTAT5a,b Ratio of EC50s (Rαβγ/Rβγ), human cells (Recombinant human IL-2 [9]) | pSTAT5a,b fold EC50 shift, Human Primary NK cells (huRβγ) (Recombinant human IL-2 [9]) | pSTAT5a,b fold EC50 shift, NK92 (huRαβγ) (Recombinant human IL-2 [9]) | EC50 of IL-2-induced pSTAT5a,b in CD25-depleted human primary NK cells with 100 nM antibody (Recombinant human IL-2 [10]) | EC50 of IL-2-induced pSTAT5a,b in NK-92 cells with 100 nM antibody (Recombinant human IL-2 [10]) | Fold EC50 shift of IL-2-induced proliferation, BaF3/IL-2 HuRβγ (Recombinant human IL-2 [11]) | Fold EC50 shift of IL-2-induced proliferation, NK92 (huRαβγ) (Recombinant human IL-2 [11]) | Ratio (huRαβγ/Rβγ) of fold EC50 shifts, proliferation (Recombinant human IL-2 [11]) | Kd (Mouse IL-2 [12]) | Kd (Rat IL-2 [13]) | EC50 of IL-2-induced pSTAT5a,b in mouse primary NK cells with 100 nM antibody (Recombinant human IL-2 [10]) | binding result (CHOk1-IL2Ralpha) | other results
1 | MAB602 (antibody) |  |  |  |  |  |  |  |  |  |  |  |  |  |  |  |  |  |  |  |  | Kd (Mouse IL-2 [1]): 10 nM; EC50 of IL-2-induced pSTAT5a,b in NK-92 cells with 100 nM antibody (Recombinant human IL-2 [2]): 900 pM; EC50 of IL-2-induced pSTAT5a,b in mouse primary NK cells with 100 nM antibody (Recombinant human IL-2 [2]): 361 pM; Kd (Recombinant human IL-2 [3]): 0.12 nM
2 | XPA.92.099 (antibody, V domains shown, Tested as purified full-length human IgG; also called mAb99; clone 99) VH: QVQLVESGGGLVKPGRSLRLSCAASGFTFNRYAMSWVRQAPGKGLEWVAMISFDGGNQYYTDSVSGRFTISRDNSKTTLFLQMDSLRTEDTAVYYCVRSPAGDWVAYFDYWGQGTLVTVSS VL: DIQMTQSPSSLSASIGDRVTIPCQASEDISNHLSWYQQKPGKAPKPLIFDASDLETGVPSRFSGSGSGTDFALTISSLRPDDFATYYCHQYHDYPSYTFGHGTKLEIKR | 0.09 nM | 17 | 293 fold | 17 fold | 54 fold | 0.044 nM | 0.00024 s⁻¹ | 5.5e+06 M⁻¹ s⁻¹ | 21 | 24 fold | 495 fold | 3050 pM | 463 pM | 2.4 fold | 22 fold | 9 |  |  |  |  | binding result (Mouse IL-2 [5]): no binding (tested: IL-2 injected from 30 nM to 1 nM); binding result (Rat IL-2 [6]): no binding (tested: IL-2 injected from 30 nM to 1 nM)
3 | XPA.92.041 (antibody, V domains shown, Tested as purified full-length human IgG) VH: EVQLVQSGAEVKKPGESLKISCKGSGYNFDTYWIGWVRQMPGRGLEWMGTIYPADSDTRYSPSFQGQVTTSADKSISTAYLQWGSLRASDTAMYYCARFSSSAYDIWGQGTMVTVSS VL: SYELTQPPSVSVSPGQTARITCSGDALPRQFAYWYQQKPGQAPVLVIYKDTERPSGIPERFSGSSSGTTVTLTISGVQAEDEADYYCQSADSSGTYHVFGGGTQLTVLG | 0.5 nM | 34 | 404 fold | 12 fold | 58 fold | 0.058 nM | 0.00032 s⁻¹ | 5.6e+06 M⁻¹ s⁻¹ | 35 | 35 fold | 1230 fold | 4520 pM | 1150 pM | 3.9 fold | 35 fold | 9 | 40 nM | 1 nM | 1350 pM | no binding | binding result [14]: no binding
4 | XPA.92.042 (antibody, V domains shown, Tested as purified full-length human IgG) VH: EVQLVQSGTEVKKAGDSLKISCKGSGYNFDTYWIGWVRQMPGRGLEWMGTIYPADSDTRYSPSFQGQVTMSADKSISTAYLQWGSLRASDTAMYYCARFSSSAYDIWGQGTMVTVSS VL: SYELTQPPSVSVSPGQTARITCSGDALPRKFAYWYQQKSGQAPVLVIYQDTKRPSGIPERFSGSSSGTTVTLTISDVQAEDDADYYCQSADRSDSYVFGAGTKLTVLG | 0.6 nM | 57 | 793 fold | 14 fold | 156 fold | 0.028 nM | 0.00025 s⁻¹ | 8.9e+06 M⁻¹ s⁻¹ | 45 | 41 fold | 1860 fold | 5120 pM | 1700 pM | 5 fold | 52 fold | 10 | 10 nM | 6 nM | 1660 pM | no binding | binding result [14]: no binding
5 | XPA.92.019 (antibody, V domains shown, Tested as purified full-length human IgG; also called mAb19) VH: EVQLVESGGGLVQPGRSLRLSCAASGFTFSYYGMHWVRQAPGKGLEWVADISNDGSNKYYADSVKGRFTISRDNSKTTLYLQMNSLRPEDTAVYYCATPYYDSSGLDYWGQGTLVTVSS VL: SYELTQPPSVSVSPGQTARITCSGDALPKRFAYWYQQKAGQAPVLVIYEDNKRPSGIPETLSGSSSGTTATLTISGAQEEDEADYYCYSTDNTGGLWVFGGGTKLTVLG | 0.2 nM | 35 | 523 fold | 15 fold | 130 fold | 0.0095 nM | 3.4e-05 s⁻¹ | 3.7e+06 M⁻¹ s⁻¹ | 24 | 40 fold | 966 fold | 5040 pM | 900 pM | 5.2 fold | 33 fold | 6 | 100 nM |  | 1720 pM | no binding | 
